Measured values as given in the supplement of paper PMC10567573.
± gives the standard deviation.

Test: protein stability index of a GFP-peptide fusion (GPS, HEK-293T) (PSI 1-6); higher = more stable
Conditions: c terminus: a fixed tail appended
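Note: 24-mer peptide tiles fused after GFP, lentivirally expressed, FACS-sorted into six equal bins by GFP/DsRed ratio, decoded by Illumina sequencing, PSI is the read-weighted mean bin number.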

Sequence | protein stability index (treatment: DMSO) | protein stability index (treatment: MLN4924 1 uM, 8 h)
YGQFTCEGCKSFFKRSVRRNLSYT [NR2F2] | 2.33 ± 0.12 | 2.33 ± 0.21
VTYSLLKRLKERSLDTLLEAVESR [SMAD6] | 2.26 ± 0.17 | 2.33 ± 0.29
EQEPIGTDLDAVRTPEPLEEFPKR [MYBL2] | 5.57 ± 0.2 | 5.18 ± 0.46
ELARIVLLRHGMDRLWRPSKVLSL [RAB40B] | 2.54 ± 0.67 | 2.43 ± 0.75
TSLEITILTSQPGKEVVKQLEEGL [M1AP] | 2.74 ± 0.22 | 2.68 ± 0.2
DWGTPRELTFSYIAFDGVVGSGGR [RTN2] | 1.91 ± 0.22 | 2.43 ± 0.37
QTEPQDRSPAPMSCDKSTQTPSPP [BCL2L11] | 5.58 ± 0.14 | 5.38 ± 0.23
AHDNSEELERARELKEKEATLCLE [ANKRD44] | 5.58 ± 0.21 | 5.45 ± 0.26
LSFAAKQRELHSHVTNAMVLVNVL [DHCR7] | 2.49 ± 0.77 | 2.44 ± 0.79
EIPERRDSGVGASLTRSNRHRLRW [DLC1] | 4.17 ± 0.35 | 4.36 ± 0.32
LTIEERYLPQCSYFKCVQKDIQPY [CCND2] | 2.37 ± 0.31 | 2.49 ± 0.24
IDKEIELHRILHHKHVVQFYHYFE [PLK2] | 2.12 ± 0.29 | 2.18 ± 0.38
FVLYFLLACWTYGISVPSGLFVPS [CLCN6] | 3.49 ± 0.56 | 3.09 ± 0.14
ARDTVQVELIPEKKGLFLKHVEYE [SNX8] | 3.65 ± 0.39 | 3.73 ± 0.26
PRGKPPLNTRSQAPLLRWVLTLSF [HMOX1] | 2.81 ± 0.28 | 3.1 ± 0.61
FMHENLYFTNRKVNSVCWASLNHL [DCAF4] | 2.69 ± 0.48 | 2.46 ± 0.53

Sequence | protein stability index (treatment: DMSO) | protein stability index (treatment: MLN4924 1 uM, 8 h)
GGRFRCPSCRHEVVLDRHGVYGLQ [TRIM55] | 2.31 ± 0.23 | 2.36 ± 0.6
VNKLKWNLAAMTPHDFIEHFLSKM [CCND1] | 2.25 ± 0.35 | 2.51 ± 0.25
VSHVGWDPQNGFDVNNLDPDLRSL [WAS] | 3.9 ± 0.24 | 3.98 ± 0.3
EGVEIMLGVCASGLLIYRDRLRIN [EPB41L3] | 2.75 ± 2.1 | 2.12 ± 0.2
MSWRGRSTYYWPRPRRYVQPPEMI [GAGE1] | 2.64 ± 0.43 | 2.55 ± 0.24
LHALKLRSPDASPSRAPPSTQEPQ [GNAS] | 4.54 ± 0.25 | 4.65 ± 0.1
VGGQDTGATWRTSGLLEELNAEAG [C18orf25] | 4.57 ± 0.2 | 4.59 ± 0.34
GNCKYKVDCACLKENPECPVLKRS [KMT2E] | 3.41 ± 0.5 | 4.05 ± 0.74
TEDEKKELENLAAMDLELQKIAEK [CHGB] | 5.47 ± 0.22 | 5.57 ± 0.083
EFGYNAETQKLLCKNGETLLGAVN [ARFIP2] | 3.31 ± 0.042 | 3.29 ± 0.38
EAAGESLEEEIRRKQILLRGKLKK [ZC2HC1C] | 4.87 ± 0.33 | 4.59 ± 0.35
ERTKSRLVNTSENLSKSRKILRSM [VTI1B] | 3.79 ± 0.21 | 3.87 ± 0.19
SCEACKAFFKRTIQGNIEYSCPAT [ESRRG] | 2.46 ± 0.25 | 2.64 ± 0.37
AASLVTMGIVNLNIHMNFTHICRS [SLC2A12] | 3.46 ± 0.27 | 3.16 ± 0.21
VIKGVLFRIFIIWAISSWFRRGPA [CLPTM1] | 2.75 ± 0.58 | 2.87 ± 0.68
QDACQAQAREKELLELQSQQACTH [CCDC89] | 4.91 ± 0.29 | 4.9 ± 0.2
